T1: cav(1-104), truncated caveolin-1 with intramembrane and C-terminal domains deleted (human, UniProt Q03135 1-104)
T1 sequence (looked up): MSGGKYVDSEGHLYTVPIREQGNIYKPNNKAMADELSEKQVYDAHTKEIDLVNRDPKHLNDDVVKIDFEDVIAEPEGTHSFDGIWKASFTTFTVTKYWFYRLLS


Target: T1, cav(1-104), truncated caveolin-1 with …
Experiment: ITC

Binder | dH1 (first binding site) [kcal/mol] | dH2 (second binding site) [kcal/mol]
YTSLIHSLIEESQNQQEKHEKEIIDIERWASMLQLF (designed binder) [caveolin ligand 5 fused to MBP] | -26.1 | 83.9
YTSLIHSLIEESQNQQEKQEKELMELERWGSMLKCF (designed binder) [caveolin ligand 4 fused to MBP] | -20.6 | 44.8
